The text below walks through data of patent publication US20110288009A1, “LEPTIN AND LEPTIN ANALOG CONJUGATES AND USES THEREOF” (Angiochem Inc., priority 2008, published 2011).

For series [1] the following is noted: in situ brain perfusion; threshold definition of efficient transport; cited from earlier work.
Series [2] is described as follows: in situ perfusion assay in lean and diet-induced obese (DIO) mice. It is filed as in vivo. The following applies: DIO mice compared with lean mice; FIG. 4A. From the text:
Blood Flow Metab. 20(2):381-386.

The subject of a further series is ob/ob mice. Description: body weight of ob/ob mice treated with recombinant leptin. It is filed as in vivo. The following applies: 0.1 mg/mouse or 0.25 mg/mouse daily, FIG. 21. The protocol:
As a control, we tested the ability of recombinant leptin to reduce body weight in ob/ob mice using either 0.1 mg/mouse or 0.25 mg/mouse daily.

Turning to “T F F Y G G S R G K R N N F R T E E Y (TFFYGGSRGKRNNFRTEEY) [Angiopep-6]”, the “transport across the BBB relative to that of Angiopep-1 (250 nM)” value in series [1] is on record as 38.5%.

B1: leptin: recombinant leptin used as control and comparator in Example 5 (protein, UniProt P41160 22-167, looked up)
Leptin: VPIQKVQDDTKTLIKTIVTRINDISHTQSVSAKQRVTGLDFIPGLHPILSLSKMDQTLAVYQQVLTSLPSQNVLQIANDLENLRDLLHLLAFSKSCSLPQTSGLQKPESLDGVLEASLYSTEVVALSRLQGSLQDILQQLDVSPEC
With B1, in series [2], the “transport across the BBB in DIO mice versus lean mice” value is on record as “reduced as compared to in lean mice”. Besides, in the series with ob/ob mice, the body weight entry is listed as “reduce body weight in these mice in a dose-dependent manner”.
